# Source: PMC5755706 (Nature structural & molecular biology, 2017)
# Positions count from the first letter of the chain named. Names and notes keep the numbering of the source.
# T1: MBP-tagged TERB1^TRFB – TERB2^1-107 (human, UniProt Q8NA31;Q8NHR7)
# T1 sequence 1: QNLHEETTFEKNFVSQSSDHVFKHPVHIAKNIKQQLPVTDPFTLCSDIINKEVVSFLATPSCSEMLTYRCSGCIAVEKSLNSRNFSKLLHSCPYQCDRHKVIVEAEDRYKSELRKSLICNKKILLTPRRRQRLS
# T1 sequence 2: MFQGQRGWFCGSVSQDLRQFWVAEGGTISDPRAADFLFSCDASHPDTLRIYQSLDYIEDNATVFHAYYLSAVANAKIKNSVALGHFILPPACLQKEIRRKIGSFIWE
# T2: GST-TRF1^TRFH (human, UniProt P54274 62-265)
# T2 sequence: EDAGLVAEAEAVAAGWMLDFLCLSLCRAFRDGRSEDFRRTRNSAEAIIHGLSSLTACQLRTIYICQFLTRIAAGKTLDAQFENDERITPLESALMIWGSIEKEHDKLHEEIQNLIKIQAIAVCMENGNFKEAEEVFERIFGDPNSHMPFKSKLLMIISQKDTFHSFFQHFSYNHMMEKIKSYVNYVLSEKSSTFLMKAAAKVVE
# B1: human TRF1^TRFH (TRF homology domain of TRF1, aa 62-265) (domain or fragment)
# chain: T2 sequence
# modifications: biotin (biotin maleimide) on cysteines in the flow-cytometry bead assays; unlabelled in the pull-downs and the crystal
# B2: TERB1^TRFB - TERB2^1-107 complex WT (complex)
# chain 1: T1 sequence 1
# chain 2: T1 sequence 2
# B3: TERB1^TRFB - TERB2^1-107 I645E (complex)
# chain 1: T1 sequence 1 with I123E
# chain 2: T1 sequence 2
# B4: TERB1^TRFB - TERB2^1-107 I645F (complex)
# chain 1: T1 sequence 1 with I123F
# chain 2: T1 sequence 2
# What was measured:
# human TRF2^TRFH (human) = human TRF2^TRFH (human) (UniProt Q15554); experiment: flow cytometry protein interaction assay
# crystal structure = biological target: the molecule itself; experiment: crystal structure
# [1] = biological target: T1, MBP-tagged TERB1^TRFB – TERB2^1-107; experiment: pull-down
# GST-TRF1^TRFH = biological target: T2, GST-TRF1^TRFH; experiment: pull-down
# Sequence of human TRF2^TRFH (human) (Q15554 whole entry): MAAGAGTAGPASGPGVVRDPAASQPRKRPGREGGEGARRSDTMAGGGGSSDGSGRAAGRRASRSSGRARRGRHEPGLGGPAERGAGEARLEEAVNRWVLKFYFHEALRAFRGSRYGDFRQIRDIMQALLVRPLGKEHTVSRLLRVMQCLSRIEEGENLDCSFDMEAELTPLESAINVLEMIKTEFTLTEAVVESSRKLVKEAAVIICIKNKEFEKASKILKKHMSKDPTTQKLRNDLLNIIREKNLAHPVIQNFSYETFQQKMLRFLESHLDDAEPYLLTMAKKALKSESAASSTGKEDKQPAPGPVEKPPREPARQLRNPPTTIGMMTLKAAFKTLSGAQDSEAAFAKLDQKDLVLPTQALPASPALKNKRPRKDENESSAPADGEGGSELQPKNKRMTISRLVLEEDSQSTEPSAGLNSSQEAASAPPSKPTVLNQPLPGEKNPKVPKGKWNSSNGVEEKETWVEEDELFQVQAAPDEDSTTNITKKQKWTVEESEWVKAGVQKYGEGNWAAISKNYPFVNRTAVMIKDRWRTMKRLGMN
molecule,measurement,setting,value
His-Smt3-TERB1^TBM T648A (from UniProt Q8NA31 643-656) (peptide),relative IC50 (normalized to TERB1^TBM WT),human TRF2^TRFH (human),0.4
His-Smt3-TERB1^TBM I645E (from UniProt Q8NA31 643-656) (peptide),relative IC50 (normalized to TERB1^TBM WT),human TRF2^TRFH (human),2.25
His-Smt3-TERB1^TBM I645F (from UniProt Q8NA31 643-656) (peptide),relative IC50 (normalized to TERB1^TBM WT),human TRF2^TRFH (human),2.6
His-Smt3-TERB1^TBM R652E (from UniProt Q8NA31 643-656) (peptide),relative IC50 (normalized to TERB1^TBM WT),human TRF2^TRFH (human),1.05
His-Smt3-TERB1^TBM WT (from UniProt Q8NA31 643-656) (peptide),relative IC50 (normalized to TERB1^TBM WT),human TRF2^TRFH (human),1
B1,stoichiometry N,crystal structure,2
same,binding result,[1],binds
KKILLTPRRRQRLS [His-Smt3-TERB1^TBM WT],binding result,GST-TRF1^TRFH,binds
KKFLLTPRRRQRLS [His-Smt3-TERB1^TBM I645F],binding result,GST-TRF1^TRFH,binds
B2,relative IC50 (normalized to TERB1^TRFB - TERB2^1-107 WT),human TRF2^TRFH (human),1
B3,relative IC50 (normalized to TERB1^TRFB - TERB2^1-107 WT),human TRF2^TRFH (human),0.4
B4,relative IC50 (normalized to TERB1^TRFB - TERB2^1-107 WT),human TRF2^TRFH (human),0.8
